# In US5914109:
# pKd: −log10 of the molar value.
# Assays:
# [1] = molecular target: 20-mer V3 peptide of HIVMN (American Bio-Technologies) (HIV-1 strain MN); assay: Friguet ELISA method, V3 MN peptide
# [2] = molecular target: gp120 of HIVMN (HIV-1 strain MN) (UniProt P05877)
# [3] = molecular target: 20-mer V3 peptide of HIVMN (American Bio-Technologies) (HIV-1 strain MN); assay: competition ELISA in solution at equilibrium (Friguet method)
# [4] = molecular target: 22-mer V3 peptide of HXB2 (HIV-1 HXB2 (IIIB)); assay: competition ELISA in solution (Friguet method); mAb after the fourth cloning
# [5] = molecular target: 20-mer V3 peptide of HIVSF2 (HIV-1 isolate SF-2); assay: ELISA on V3 peptide coated plates, mAb at 10 µg/ml
# [6] = molecular target: 23-mer peptide of the gp120 V3 loop of the MN strain of HIV-1 (HIV-1 strain MN); assay: ELISA on V3 peptide coated plates, mAb at 10 µg/ml
# [7] = molecular target: V3-WM52 peptide (HIV-1 isolate WM52); assay: ELISA on V3 peptide coated plates, mAb at 10 µg/ml
# [8] = molecular target: V3-RF peptide (HIV-1 isolate RF); assay: ELISA on V3 peptide coated plates, mAb at 10 µg/ml
# [9] = molecular target: V3-SC peptide (HIV-1 isolate SC); assay: ELISA on V3 peptide coated plates, mAb at 10 µg/ml
# [10] = molecular target: 22-mer V3 peptide of HXB2 (HIV-1 HXB2 (IIIB)); assay: ELISA on V3 peptide coated plates, mAb at 10 µg/ml
# [11] = molecular target: V3-NY5 peptide (HIV-1 isolate NY5); assay: ELISA on V3 peptide coated plates, mAb at 10 µg/ml
# [12] = molecular target: V3-CDC4 peptide (HIV-1 isolate CDC4); assay: ELISA on V3 peptide coated plates, mAb at 10 µg/ml
# [13] = molecular target: recombinant gp120IIIB (baculovirus, Repligen) (HIV-1 isolate IIIB) (UniProt P04578); assay: Friguet method, ligand in solution at equilibrium; rgp120 IIIB (row HXB2)
# [14] = molecular target: gp120 of HTLV-IIIB (HIV-1 isolate IIIB)
# [15] = molecular target: 20-mer V3 peptide of HIVMN (American Bio-Technologies) (HIV-1 strain MN); assay: Friguet method, ligand in solution at equilibrium; V3 peptide of MN
# [16] = molecular target: 22-mer V3 peptide of HXB2 (HIV-1 HXB2 (IIIB)); assay: competition ELISA in solution (Friguet method); mAb after the second cloning
# [17] = molecular target: gp120 of HIVMN (HIV-1 strain MN) (UniProt P05877); remark: listed apart in the source
# [18] = molecular target: gp120 of HTLV-IIIB (HIV-1 isolate IIIB); remark: listed apart in the source
# [19] = molecular target: recombinant gp120IIIB (baculovirus, Repligen) (HIV-1 isolate IIIB) (UniProt P04578); assay: Friguet method; reference: V3IIIB peptide
# [20] = molecular target: recombinant gp120 protein of HIVSF2 (produced in CHO cells) (HIV-1 isolate SF-2) (UniProt P03378); assay: Friguet method; reference: V3SF-2 peptide
# [21] = molecular target: recombinant gp120 protein of HIVSF2 (produced in CHO cells) (HIV-1 isolate SF-2) (UniProt P03378); assay: Friguet method, ligand in solution at equilibrium; rgp120 SF-2
# [22] = molecular target: 20-mer V3 peptide of HIVSF2 (HIV-1 isolate SF-2); assay: competition ELISA in solution at equilibrium (Friguet method)
# [23] = molecular target: 22-mer V3 peptide of HXB2 (HIV-1 HXB2 (IIIB)); assay: as above
# [24] = molecular target: 20-mer V3 peptide of HIVSF2 (HIV-1 isolate SF-2); assay: Friguet method, ligand in solution at equilibrium; V3 peptide of SF-2
# [25] = molecular target: 22-mer V3 peptide of HXB2 (HIV-1 HXB2 (IIIB)); assay: Friguet method, ligand in solution at equilibrium; V3 peptide of HXB2
# [26] = molecular target: gp120 of HIV-1 isolate WMJ-2 (HIV-1 isolate WMJ-2)
# [27] = molecular target: gp120 of HIV-1 isolate SF-2 (virus) (HIV-1 isolate SF-2) (UniProt P03378)
# [28] = molecular target: gp120 of HIVMN (HIV-1 strain MN) (UniProt P05877); remark: listed apart in the source
# [29] = molecular target: gp120 of HTLV-IIIB (HIV-1 isolate IIIB); remark: listed apart in the source
# [30] = molecular target: gp120 of HIV-1 isolate AL-1 (HIV-1 isolate AL-1)
# [31] = molecular target: gp120 of HIV-1 isolate RF (HIV-1 isolate RF) (UniProt P04579)
# [32] = molecular target: 20-mer V3 peptide of HIVSF2 (HIV-1 isolate SF-2); assay: competition ELISA in solution (Friguet method); reference: the MN peptide
Substance,pKd [1],"50% neutralization, CEM-SS syncytium-forming assay, IgG concentration [2] [µg/mL]","90% neutralization, CEM-SS syncytium-forming assay, IgG concentration [2] [µg/mL]",pKd [3],minimum antigen concentration giving positive results (µg/ml of V3 peptide used to coat) [5],minimum antigen concentration giving positive results (µg/ml of V3 peptide used to coat) [6],minimum antigen concentration giving positive results (µg/ml of V3 peptide used to coat) [7],minimum antigen concentration giving positive results (µg/ml of V3 peptide used to coat) [9],minimum antigen concentration giving positive results (µg/ml of V3 peptide used to coat) [11],minimum antigen concentration giving positive results (µg/ml of V3 peptide used to coat) [12],pKd [22],pKd [23],other results
human mAb 412-D (antibody),5.04,4.69,> 10,5.04,–,–,–,–,–,–,–,–,–
human mAb 447-D (antibody),6.25,0.05,0.92,6.25,0.01,0.01,0.2,0.01,0.1,0.1,6.05,4.62,"pKd [4]: 4.80; minimum antigen concentration giving positive results (µg/ml of V3 peptide used to coat) [8]: 0.4; minimum antigen concentration giving positive results (µg/ml of V3 peptide used to coat) [10]: 0.2; pKd [13]: 5.41; 50% neutralization, CEM-SS syncytium-forming assay, IgG concentration [14]: 1.8 µg/mL; 90% neutralization, CEM-SS syncytium-forming assay, IgG concentration [14]: > 10 µg/mL; pKd [15]: 6.25; pKd [16]: 4.19; neutralization dose 50%, according to Nara et al. [17]: 0.052 µg/mL; neutralization dose 90%, according to Nara et al. [17]: 0.9 µg/mL; neutralization dose 50%, according to Nara et al. [18]: 1.8 µg/mL; percent neutralization at the maximum concentration of 10 µg/ml [18]: 71%; fold stronger binding than to the V3IIIB peptide [19]: 6 fold; fold stronger binding than to the V3SF-2 peptide [20]: 90 fold; pKd [21]: 8.00; pKd [24]: 6.05; pKd [25]: 4.62"
human mAb 537-D (antibody),5.89,2.69,> 10,5.89,1,0.6,2,1,0.8,1,5.07,< 4.00,"neutralization endpoint, MT-4 cell killing assay [26]: > 50 µg/mL; neutralization endpoint, MT-4 cell killing assay [27]: > 5 µg/mL; neutralization endpoint, MT-4 cell killing assay [28]: 6.25 µg/mL; neutralization endpoint, MT-4 cell killing assay [29]: > 50 µg/mL; neutralization endpoint, MT-4 cell killing assay [30]: 3.13 µg/mL; neutralization endpoint, MT-4 cell killing assay [31]: > 50 µg/mL; fold difference of Kd between the two V3 peptides (MN and SF-2) [32]: 7 fold"
